B1: H4H9814P (antibody, human IgG4 S228P, kappa, V domains shown)
VH: EVQLVESGGGLVQPGGSLKLSCTASGFTFSGSVIHWVRQASGKGLEWIGRIRNKANSYATAYGASVTGRFTISRDDSKNTAYLQMNSLKTEDTAVYYCTFPGVVGRGGFDYWGQGTLVTVSS
VL: DIVMTQSPDSLAVSLGEGATINCMSSQSVLFSSNNKNYLAWYQQKPGQPPKLLFYWASTRESGVPDRFGGSGSGTDFSLTINSLQTEDVAVYYCLQYYSIPWTFGQGTKVEIKR
notes: Fully human anti-human TrkB agonist antibody, human IgG4 Fc; also called H4H9814P-L1
B2: H1M8037C (antibody, mouse IgG1, kappa, V domains shown)
VH: QVQLVQSGAEVKKPGASVKVSCKASGYTFTNYDIIWVRQAPGQGLEWMGYINPYNDGTKYNEKFKGRVTMTRDTSTSTVYMELSSLRSEDTAVYYCARLLKYRRFRYYAIDYWGQGTTVTVSS
VL: DIQMTQSPSSLSASVGDRVTITCRTSENVYSNLAWYQQKPGKAPKLLIYAASNLQSGVPSRFSGSGSGTDYTFTISSLQPEDIATYYCQHFWGSPFTFGQGTKLEIKR
notes: captured by anti-mFc in SPR; also called Comparator; comparator anti-TrkB monoclonal antibody
B3: H4H9816P2 (antibody, human IgG4 S228P, kappa, V domains shown)
VH: EVQLVESGGGLVQPGGSLTLSCAASGFNFRDYEMIWVRQTPGKGLEWISYISNSGYTIYYADSVKGRFTISRDNARNSIYLQVNSLRAEDTAVYYCSRRTTMIRGIRAYYYYGLDVWGQGTTVTVSS
VL: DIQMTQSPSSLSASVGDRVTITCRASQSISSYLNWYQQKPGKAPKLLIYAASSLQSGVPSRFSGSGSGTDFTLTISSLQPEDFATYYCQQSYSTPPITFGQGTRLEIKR
notes: Fully human anti-human TrkB agonist antibody, human IgG4 Fc; also called H4H9816P-L1
B4: M2aM14179N (antibody, mouse IgG2a, kappa, V domains shown)
VH: EVQLQQSGPELVKPGASVKISCKASGYTLTDYYMNWVKQSHGKSLEWIGDINPNNGGTSYNQKFKGKATLTVDKSSSTAYMELRSLTSEDSAVYYCARGAYYSNYFDYWGQGTTLTVSS
VL: DIVMSQSPSSLAVSAGEKVTMSCKSSQSLLNSRTRKNYLAWYQQKPGQSPKLLIYWASTRESGVPDRFTGSGSGTDFTLTISSVQAEDLAVYYCKQSYILFTFGSGTQLEIKR
notes: Anti-mouse TrkB antibody from hybridoma, mouse IgG2a Fc; also called surrogate anti-mouse TrkB antibody
B5: M2aM14173N (antibody, mouse IgG2a, kappa, V domains shown)
VH: NVSLVESGGGSVKPGGSLQLSCAASGFTFSSSAMSWIRQTPEMRLEWVATISDRGSYTYYPDSVEGRFTISRDNAKNILYLQMSHLMSEDTAMYYCARGKGEKAYYTAFFAYWGQGSLVTVSA
VL: DIQMTQSPASLSASVGETVTITCRASENIYSYLAWYQQKPGKSPHLLVHNAETLAEGVPSRFSGSGSGPQFSLKINSLQPGDSGTYYCQHHYSSPWTFGGGTKLEIKR
notes: as for B4
B6: H4H9780P (antibody, human IgG4 S228P, kappa, V domains shown)
VH: QVQLVESGGGVVQPGRSLRLSCAASGFSFSSFGMHWVRQAPGKGLEWVSVISYDGINTYYTDSVKGRFTISRDNSKNTLYLQMNGLRAEDTALYYCVQGSIGTVFEYWGQGTLVTVSS
VL: DIQMTQSPSSLSASVGDRVTITCRASQGISNYLAWYQQKPGKVPKLLIYAASTLQSGVPSRFGGSGSGTDFTLTISSLQPEDVATYYCQKYTSAPFTFGPGTKVDIKR
notes: Fully human anti-human TrkB agonist antibody, human IgG4 Fc; also called H4H9780P-L1

Legend:
[1] = biological target: T1, mouse TrkB extracellular domain expressed with a C-terminal myc-myc-hexahistidine tag (mouse, UniProt P15209 32-429); assay: SPR, mAb captured (anti-hFc), 25C
T1 construct: also called mTrkB.mmH; mTRKB.mmH
T1 sequence (P15209 other isoform, or with tags, fused parts or gaps): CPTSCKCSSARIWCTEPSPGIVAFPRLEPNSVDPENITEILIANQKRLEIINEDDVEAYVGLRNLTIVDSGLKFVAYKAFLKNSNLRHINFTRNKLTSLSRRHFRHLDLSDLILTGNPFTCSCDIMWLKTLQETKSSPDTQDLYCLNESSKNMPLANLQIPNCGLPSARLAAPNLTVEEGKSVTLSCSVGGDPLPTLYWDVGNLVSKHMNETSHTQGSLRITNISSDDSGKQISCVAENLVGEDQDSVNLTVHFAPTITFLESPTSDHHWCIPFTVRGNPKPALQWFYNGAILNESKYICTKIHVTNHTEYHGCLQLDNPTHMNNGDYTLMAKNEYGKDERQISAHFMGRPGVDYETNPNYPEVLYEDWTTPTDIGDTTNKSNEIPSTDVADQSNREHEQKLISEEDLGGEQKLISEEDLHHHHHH
Method: (§1) Equilibrium dissociation constants (KD values) for TrkB binding to purified anti-TrkB monoclonal antibodies were determined using a real-time surface plasmon resonance biosensor using a Biacore 4000 instrument. All binding studies were performed in 10 mM Hepes pH 7.4, 150 mM NaCl, 3 mM EDTA, and 0.05% v/v Surfactant Tween-20 (HBS-ET running buffer) at 25° C. and 37° C. […] Binding studies were performed on following TrkB reagents; human TrkB extracellular domain expressed with a C-terminal myc-myc-hexahistidine tag (hTRKB.mmH; SEQ ID NO: 76; Accession number NP_001018074.1), mouse TrkB extracellular domain expressed with a C-terminal myc-myc-hexahistidine tag (mTRKB.mmH; SEQ ID NO: 79; Accession number NP_001020245), rat TrkB extracellular domain expressed with a C-terminal myc-myc-hexahistidine tag (rTRKB.mmH; SEQ ID NO: 84; Accession number NP_036863.1), and human TrkB extracellular domain expressed with a C-terminal mouse IgG2a Fc tag (hTrkB-mFc; SEQ ID NO: 77; Accession number NP_001018074.1). […] Kinetic association (kₐ) and dissociation (kd) rate constants were determined by fitting the real-time binding sensorgrams to a 1:1 binding model with mass transport limitation using Scrubber 2.0c curve-fitting software. Binding dissociation equilibrium constants (KD) and dissociative half-lives (t½) were calculated from the kinetic rate constants as: […]

[2] = biological target: T2, rat TrkB extracellular domain expressed with a C-terminal myc-myc-hexahistidine tag (rat, UniProt Q63604 32-429); assay: SPR, mAb captured (anti-hFc), 25C
T2 construct: also called rTrkB.mmH; rTRKB.mmH
T2 sequence (Q63604 other isoform, or with tags, fused parts or gaps): as the sequence (P15209 other isoform, or with tags, fused parts or gaps) above, with T3M, S9T, A10T, V32I, R63K, S84G, M153T, L185I, S394T counted along it
Method: as §1

[3] = biological target: T3, human TrkB extracellular domain expressed with a C-terminal myc-myc-hexahistidine tag (human, UniProt Q16620 32-430); assay: SPR, mAb captured (anti-hFc), 25C
T3 construct: also called hTrkB.mmH; hTRKB.mmH
T3 sequence (Q16620 other isoform, or with tags, fused parts or gaps): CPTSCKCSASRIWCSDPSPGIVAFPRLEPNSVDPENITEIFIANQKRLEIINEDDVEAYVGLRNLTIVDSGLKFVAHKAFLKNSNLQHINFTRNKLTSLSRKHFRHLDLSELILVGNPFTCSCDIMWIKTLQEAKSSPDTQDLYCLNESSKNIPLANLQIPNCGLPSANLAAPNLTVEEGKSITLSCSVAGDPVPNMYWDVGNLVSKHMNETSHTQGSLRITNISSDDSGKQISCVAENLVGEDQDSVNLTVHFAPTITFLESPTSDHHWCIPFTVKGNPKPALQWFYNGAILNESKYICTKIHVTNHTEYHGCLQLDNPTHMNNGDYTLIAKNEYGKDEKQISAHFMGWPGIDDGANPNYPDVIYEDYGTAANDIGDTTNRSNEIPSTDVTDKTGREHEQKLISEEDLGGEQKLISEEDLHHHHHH
Method: as §1

[4] = biological target: T4, human TrkB extracellular domain expressed with a C-terminal mouse IgG2a Fc tag (human); assay: SPR, mAb captured (anti-hFc), 25C
T4 construct: also called hTrkB-mFc; hTrkB.mFc
T4 sequence (chain, as listed by the source limits assumed): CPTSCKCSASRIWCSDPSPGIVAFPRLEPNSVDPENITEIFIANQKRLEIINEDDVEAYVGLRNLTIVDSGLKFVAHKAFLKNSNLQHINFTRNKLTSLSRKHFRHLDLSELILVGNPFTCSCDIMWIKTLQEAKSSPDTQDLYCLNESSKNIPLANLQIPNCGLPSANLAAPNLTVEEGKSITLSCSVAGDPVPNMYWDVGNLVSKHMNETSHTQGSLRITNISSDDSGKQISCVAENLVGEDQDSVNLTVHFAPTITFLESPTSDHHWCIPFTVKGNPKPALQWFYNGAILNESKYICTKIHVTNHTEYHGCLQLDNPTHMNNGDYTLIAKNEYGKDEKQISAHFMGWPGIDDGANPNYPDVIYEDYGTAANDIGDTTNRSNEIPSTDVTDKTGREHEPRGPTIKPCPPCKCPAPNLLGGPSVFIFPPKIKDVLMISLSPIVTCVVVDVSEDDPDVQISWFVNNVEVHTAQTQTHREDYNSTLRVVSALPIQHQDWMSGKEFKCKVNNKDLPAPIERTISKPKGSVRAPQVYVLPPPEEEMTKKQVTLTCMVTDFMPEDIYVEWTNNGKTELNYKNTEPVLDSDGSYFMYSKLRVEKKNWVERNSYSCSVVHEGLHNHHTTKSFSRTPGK
Method: as §1

[5] = biological target: T1, mouse TrkB extracellular domain …; assay: SPR, mAb captured (anti-hFc), 37C
Method: as §1

[6] = biological target: T2, rat TrkB extracellular domain expressed …; assay: SPR, mAb captured (anti-hFc), 37C
Method: as §1

[7] = biological target: T3, human TrkB extracellular domain …; assay: SPR, mAb captured (anti-hFc), 37C
Method: as §1

[8] = biological target: T4, human TrkB extracellular domain …; assay: SPR, mAb captured (anti-hFc), 37C
Method: as §1

[9] = biological target: T5, mouse TrkB.hFc (mouse); assay: BLI Octet, captured mTrkB.hFc, 300 nM mAb (BDNF run)
T5 construct: also called mTrkB.hFc; mTrkB-hFc
T5 sequence (chain, as listed by the source limits assumed): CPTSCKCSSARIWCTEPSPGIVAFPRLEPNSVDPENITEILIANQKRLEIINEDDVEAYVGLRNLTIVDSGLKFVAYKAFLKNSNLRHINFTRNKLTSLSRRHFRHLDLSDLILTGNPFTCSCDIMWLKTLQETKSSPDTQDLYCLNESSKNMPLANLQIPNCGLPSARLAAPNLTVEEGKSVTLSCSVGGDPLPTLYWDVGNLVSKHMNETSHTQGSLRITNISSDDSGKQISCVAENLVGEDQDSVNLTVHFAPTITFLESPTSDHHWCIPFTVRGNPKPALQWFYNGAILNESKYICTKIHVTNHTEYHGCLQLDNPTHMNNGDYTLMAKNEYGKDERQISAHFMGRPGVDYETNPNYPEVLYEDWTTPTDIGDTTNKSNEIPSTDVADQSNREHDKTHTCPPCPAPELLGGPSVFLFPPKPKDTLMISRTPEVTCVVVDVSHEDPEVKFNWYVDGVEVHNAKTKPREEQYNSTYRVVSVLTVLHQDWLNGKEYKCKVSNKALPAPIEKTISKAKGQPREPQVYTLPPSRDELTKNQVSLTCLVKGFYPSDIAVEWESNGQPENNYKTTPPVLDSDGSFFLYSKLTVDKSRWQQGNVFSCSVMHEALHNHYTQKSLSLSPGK
Method: Blocking of BDNF or NT-4 from binding to TrkB by anti-human TrkB or anti-mouse TrkB antibodies was evaluated using a real-time bio-layer interferometry (BLI) based Octet HTX instrument. The entire study was performed in 10 mM HEPES pH 7.4, 300 mM NaCl, 3 mM EDTA, 1 mg/mL BSA, 0.02% NaN3 and 0.05% v/v Surfactant Tween-20 (HBS-EBT running buffer) at 25° C. All the samples were dispensed in a 384 tilted well plate and the plate was placed on the orbital shaker with the shake speed of 1000 rpm. hTrkB.mFc was captured on anti-mFc (AMC) Octet sensors while hTrkB.hFc or mTrkB.hFc were captured on anti-hFc (AHC) Octet sensors by dipping in wells containing 10 μg/mL of TrkB reagents for 2 minutes. hTrkB.mFc or hTrkB.hFc captured Octet biosensors were saturated by dipping in wells containing 300 nM of different TrkB mAbs for 4 minutes followed by dipping Octet biosensors in wells containing 20 nM of BDNF, hNT-4, or mNT-4 for 2 minutes. Binding of BDNF, hNT-4, or mNT-4 to the complex of TrkB and different TrkB mAbs was determined using Scrubber 2.0c analysis software.

[10] = biological target: T5, mouse TrkB.hFc; assay: BLI Octet, captured mTrkB.hFc saturated with BDNF, 300 nM mAb
Method: Blocking of anti-human TrkB or anti-mouse TrkB antibodies from binding to TrkB by BDNF or NT-4 was evaluated using a real-time bio-layer interferometry (BLI) based Octet HTX instrument. The entire study was performed in 10 mM HEPES pH 7.4, 300 mM NaCl, 3 mM EDTA, 1 mg/mL BSA, 0.02% NaN3 and 0.05% v/v Surfactant Tween-20 (HBS-EBT running buffer) at 25° C. All the samples were dispensed in a 384 tilted well plate and the plate was placed on the orbital shaker with the shake speed of 1000 rpm. hTrkB.mFc was captured on anti-mFc (AMC) Octet sensors while hTrkB.hFc or mTrkB.hFc were captured on anti-hFc (AHC) Octet sensors by dipping in wells containing 10 μg/mL of TrkB reagents for 2 minutes. hTrkB.mFc or hTrkB.hFc captured Octet biosensors were saturated by dipping in wells containing 20 nM of BDNF, hNT-4, or mNT-4 for 2 minutes followed by dipping Octet biosensors in wells containing 300 nM of different TrkB mAbs for 4 minutes. Binding of TrkB mAbs to the complex of TrkB and BDNF, hNT-4, or mNT-4 was determined using Scrubber 2.0c analysis software.

100 nM mTrkB.mmH Bound (RU) [1] | 100 nM rTrkB.mmH Bound (RU) [2] | 100 nM hTrkB.mmH Bound (RU) [3] | Kd [3] | koff [3] | kon [3] | t½ [3] | 100 nM hTrkB-mFc Bound (RU) [4] | Kd [4] | koff [4] | kon [4] | t½ [4] | 100 nM mTrkBmmH Bound (RU) [5] | 100 nM rTrkB.mmH Bound (RU) [6] | 100 nM hTrkB.mmH Bound (RU) [7] | Kd [7] | koff [7] | kon [7] | t½ [7] | 100 nM hTrkB-mFc Bound (RU) [8] | other results | Binder
-2 RU | -1 RU | 63 RU | 0.545 nM | 0.000686 s⁻¹ | 1.26e+06 M⁻¹ s⁻¹ | 17 min | 69 RU | 0.0311 nM | 5.95e-05 s⁻¹ | 1.91e+06 M⁻¹ s⁻¹ | 194 min | 0 RU | -1 RU | 32 RU | 2.28 nM | 0.00468 s⁻¹ | 2.05e+06 M⁻¹ s⁻¹ | 2.5 min | 42 RU | Kd [8]: 0.0733 nM; koff [8]: 0.000208 s⁻¹; kon [8]: 2.83e+06 M⁻¹ s⁻¹; t½ [8]: 56 min | B1
– | – | – | – | – | – | – | – | – | – | – | – | – | – | – | – | – | – | – | – | mAb Binding (nm) [9]: 0.42 nm; antibody Binding (nm) [10]: 0.06 nm | B2
0 RU | 0 RU | 30 RU | 13.8 nM | 0.000845 s⁻¹ | 61400 M⁻¹ s⁻¹ | 14 min | 25 RU | 1.22 nM | 7.98e-05 s⁻¹ | 65200 M⁻¹ s⁻¹ | 145 min | 0 RU | 0 RU | 12 RU | 70.8 nM | 0.00374 s⁻¹ | 52800 M⁻¹ s⁻¹ | 3.1 min | 14 RU | binding result [1]: no binding (tested: 100 nM); binding result [6]: no binding (tested: 100 nM); Kd [8]: 3.46 nM; koff [8]: 0.00024 s⁻¹; kon [8]: 69500 M⁻¹ s⁻¹; t½ [8]: 48 min | B3
– | – | – | – | – | – | – | – | – | – | – | – | – | – | – | – | – | – | – | – | mAb Binding (nm) [9]: 0.42 nm; antibody Binding (nm) [10]: 0.44 nm | B4
– | – | – | – | – | – | – | – | – | – | – | – | – | – | – | – | – | – | – | – | mAb Binding (nm) [9]: 0.42 nm; antibody Binding (nm) [10]: 0.38 nm | B5
-1 RU | -1 RU | 20 RU | 21.7 nM | 0.000867 s⁻¹ | 40000 M⁻¹ s⁻¹ | 13 min | 14 RU | 4.48 nM | 0.000168 s⁻¹ | 37400 M⁻¹ s⁻¹ | 69 min | 1 RU | 0 RU | 14 RU | 63.8 nM | 0.00364 s⁻¹ | 57100 M⁻¹ s⁻¹ | 3.2 min | 14 RU | Kd [8]: 3.33 nM; koff [8]: 0.000222 s⁻¹; kon [8]: 66500 M⁻¹ s⁻¹; t½ [8]: 52 min | B6
